Measured values from the supplement of paper PMC10567573.

B1: ZNF263 (parent)
chain: LLRHQRIHTGERPYKCPECGKSFS

Variants of: B1
Assay: protein stability index of a GFP-peptide fusion (GPS, HEK-293T) (PSI 1-6); higher = more stable
Settings: c terminus: a fixed tail appended
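Also: lentivirally expressed fusions sorted by FACS into six bins by GFP to DsRed ratio, PSI derived from sequencing read proportions per bin multiplied by bin number.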

Variant	protein stability index
LLRHQYIHTGERPYKCPECGKSFS [R6Y]	1.91
LLRHQLIHTGERPYKCPECGKSFS [R6L]	2.41
LLRHQVIHTGERPYKCPECGKSFS [R6V]	2.78
LLRHQGIHTGERPYKCPECGKSFS [R6G]	2.08
LLRHQAIHTGERPYKCPECGKSFS [R6A]	2.68
LLRHQNIHTGERPYKCPECGKSFS [R6N]	2.59
LLRHQPIHTGERPYKCPECGKSFS [R6P]	2.56
LLRHQTIHTGERPYKCPECGKSFS [R6T]	2.85
LLRHQQIHTGERPYKCPECGKSFS [R6Q]	2.53
LLRHQDIHTGERPYKCPECGKSFS [R6D]	2.78
LLRHQSIHTGERPYKCPECGKSFS [R6S]	2.51
LLRHQEIHTGERPYKCPECGKSFS [R6E]	2.74
LLRHQIIHTGERPYKCPECGKSFS [R6I]	2.22
LLRHQKIHTGERPYKCPECGKSFS [R6K]	2.81
LLRHQCIHTGERPYKCPECGKSFS [R6C]	5
LLRHQMIHTGERPYKCPECGKSFS [R6M]	2.08
LLRHQFIHTGERPYKCPECGKSFS [R6F]	1.41
LLRHQHIHTGERPYKCPECGKSFS [R6H]	3.73
LLRHQWIHTGERPYKCPECGKSFS [R6W]	2.06
LLRHQRIHTGERPCKCPECGKSFS [Y14C]	3.63
LLRHQRIHTGERPEKCPECGKSFS [Y14E]	2.85
LLRHQRIHTGERPAKCPECGKSFS [Y14A]	2.74
LLRHQRIHTGERPGKCPECGKSFS [Y14G]	2.34
LLRHQRIHTGERPDKCPECGKSFS [Y14D]	2.24

Variant	protein stability index
LLRHQRIHTGERPFKCPECGKSFS [Y14F]	2.64
LLRHQRIHTGEDPYKCPECGKSFS [R12D]	1.93
LLRHQRIHTGEGPYKCPECGKSFS [R12G]	3.4
LLRHQRIHTGEHPYKCPECGKSFS [R12H]	2.67
LLRHQRIHTGECPYKCPECGKSFS [R12C]	2.48
LLRHQRIHTGENPYKCPECGKSFS [R12N]	1.59
LLRHQRIHTGEYPYKCPECGKSFS [R12Y]	2.6
LLRHQRIHTGESPYKCPECGKSFS [R12S]	2.11
LLRHQRIHTGEWPYKCPECGKSFS [R12W]	1.7
LLRHQRIHTGEMPYKCPECGKSFS [R12M]	2.08
LLRHQRIHTGEPPYKCPECGKSFS [R12P]	2.52
LLRHQRIHTGEAPYKCPECGKSFS [R12A]	2.11
LLRHQRIHTGEFPYKCPECGKSFS [R12F]	2.65
LLRHQRIHTGEIPYKCPECGKSFS [R12I]	2.64
LLRHQRIHTGEQPYKCPECGKSFS [R12Q]	2.67
LLRHQRIHTGEKPYKCPECGKSFS [R12K]	2.43
LLRHQRIHTGEVPYKCPECGKSFS [R12V]	2.91
LLRHQRIHTGELPYKCPECGKSFS [R12L]	2.69
LLRHQRIHTGETPYKCPECGKSFS [R12T]	2.45
LLRHQRIHTGEEPYKCPECGKSFS [R12E]	2.71
LLRHQRPHTGERPYKCPECGKSFS [I7P]	2.56
LLRHQRKHTGERPYKCPECGKSFS [I7K]	2.14
LLRHQRVHTGERPYKCPECGKSFS [I7V]	2.27
LLRHQRQHTGERPYKCPECGKSFS [I7Q]	2.31

Variant	protein stability index
LLRHQRMHTGERPYKCPECGKSFS [I7M]	2.66
LLRHQRWHTGERPYKCPECGKSFS [I7W]	2.17
LLRHQRGHTGERPYKCPECGKSFS [I7G]	2.48
LLRHQRLHTGERPYKCPECGKSFS [I7L]	1.94
LLRHQRNHTGERPYKCPECGKSFS [I7N]	2.1
LLRHQRAHTGERPYKCPECGKSFS [I7A]	2.39
LLRHQRRHTGERPYKCPECGKSFS [I7R]	2.55
LLRHQRYHTGERPYKCPECGKSFS [I7Y]	1.77
LLRHQRSHTGERPYKCPECGKSFS [I7S]	1.91
LLRHQRFHTGERPYKCPECGKSFS [I7F]	2.79
LLRHQRDHTGERPYKCPECGKSFS [I7D]	3.06
LLRHQRTHTGERPYKCPECGKSFS [I7T]	2.41
LLRHQRCHTGERPYKCPECGKSFS [I7C]	2.48
LLRHQRHHTGERPYKCPECGKSFS [I7H]	2.68
LLRHQREHTGERPYKCPECGKSFS [I7E]	2.64
LLRHLRIHTGERPYKCPECGKSFS [Q5L]	2.4
LLRHGRIHTGERPYKCPECGKSFS [Q5G]	1.87
LLRHNRIHTGERPYKCPECGKSFS [Q5N]	2.29
LLRHIRIHTGERPYKCPECGKSFS [Q5I]	2.13
LLRHHRIHTGERPYKCPECGKSFS [Q5H]	2.74
LLRHERIHTGERPYKCPECGKSFS [Q5E]	3.06
LLRHSRIHTGERPYKCPECGKSFS [Q5S]	2.36
LLRHPRIHTGERPYKCPECGKSFS [Q5P]	2.3
LLRHMRIHTGERPYKCPECGKSFS [Q5M]	2.21

Variant	protein stability index
LLRHDRIHTGERPYKCPECGKSFS [Q5D]	2.23
LLRHWRIHTGERPYKCPECGKSFS [Q5W]	1.66
LLRHVRIHTGERPYKCPECGKSFS [Q5V]	1.74
LLRHTRIHTGERPYKCPECGKSFS [Q5T]	2.82
LLRHKRIHTGERPYKCPECGKSFS [Q5K]	2.28
LLRHARIHTGERPYKCPECGKSFS [Q5A]	2.63
LLRHCRIHTGERPYKCPECGKSFS [Q5C]	1.95
LLRHRRIHTGERPYKCPECGKSFS [Q5R]	2.09
LLRRQRIHTGERPYKCPECGKSFS [H4R]	3.38
LLRQQRIHTGERPYKCPECGKSFS [H4Q]	2.56
LLRLQRIHTGERPYKCPECGKSFS [H4L]	2.15
LLRIQRIHTGERPYKCPECGKSFS [H4I]	1.96
LLRTQRIHTGERPYKCPECGKSFS [H4T]	1.69
LLRKQRIHTGERPYKCPECGKSFS [H4K]	2.2
LLRPQRIHTGERPYKCPECGKSFS [H4P]	2.25
LLRMQRIHTGERPYKCPECGKSFS [H4M]	1.73
LLRWQRIHTGERPYKCPECGKSFS [H4W]	1.77
LLRSQRIHTGERPYKCPECGKSFS [H4S]	2.23
LLRYQRIHTGERPYKCPECGKSFS [H4Y]	2.12
LLRVQRIHTGERPYKCPECGKSFS [H4V]	3.58
LLRNQRIHTGERPYKCPECGKSFS [H4N]	2.24
LLRHQRIHTAERPYKCPECGKSFS [G10A]	2.36
LLRHQRIHTRERPYKCPECGKSFS [G10R]	2.46
LLRHQRIHTTERPYKCPECGKSFS [G10T]	3.22

Variant	protein stability index
LLRHQRIHTIERPYKCPECGKSFS [G10I]	2.29
LLRHQRIHTWERPYKCPECGKSFS [G10W]	1.69
LLRHQRIHTYERPYKCPECGKSFS [G10Y]	2.17
LLRHQRIHTMERPYKCPECGKSFS [G10M]	2.23
LLRHQRIHTSERPYKCPECGKSFS [G10S]	2.64
LLRHQRIHTFERPYKCPECGKSFS [G10F]	2.07
LLRHQRIHTDERPYKCPECGKSFS [G10D]	2.56
LLRHQRIHTHERPYKCPECGKSFS [G10H]	2.61
LLRHQRIHTPERPYKCPECGKSFS [G10P]	2.15
LLRHQRIHTQERPYKCPECGKSFS [G10Q]	2.86
LLRHQRIHTNERPYKCPECGKSFS [G10N]	3.12
LLRHQRIHTVERPYKCPECGKSFS [G10V]	2.43
LLRHQRIHTEERPYKCPECGKSFS [G10E]	3.06
LLRHQRIHTLERPYKCPECGKSFS [G10L]	2.3
LLRHQRIHTCERPYKCPECGKSFS [G10C]	2.49
LLRHQRIHTKERPYKCPECGKSFS [G10K]	2.24
LLRHQRIHTGERNYKCPECGKSFS [P13N]	2.69
LLRHQRIHTGERAYKCPECGKSFS [P13A]	3.1
LLRHQRIHTGERRYKCPECGKSFS [P13R]	1.72
LLRHQRIHTGERMYKCPECGKSFS [P13M]	2.5
LLRHQRIHTGERVYKCPECGKSFS [P13V]	2.54
LLRHQRIHTGERQYKCPECGKSFS [P13Q]	3.02
LLRHQRIHTGERTYKCPECGKSFS [P13T]	2.56
LLRHQRIHTGEREYKCPECGKSFS [P13E]	2.48

Variant	protein stability index
LLRHQRIHTGERSYKCPECGKSFS [P13S]	2.02
LLRHQRIHTGERFYKCPECGKSFS [P13F]	2.01
LLRHQRIHTGERCYKCPECGKSFS [P13C]	2.16
LLRHQRIHTGERLYKCPECGKSFS [P13L]	2.73
LLRHQRIHTGERKYKCPECGKSFS [P13K]	1.78
LLRHQRIHTGERHYKCPECGKSFS [P13H]	1.64
LLRHQRIHTGERYYKCPECGKSFS [P13Y]	1.89
LLRHQRIHTGERGYKCPECGKSFS [P13G]	2.36
LLRHQRIHTGERDYKCPECGKSFS [P13D]	2.11
LLRHQRIHTGERIYKCPECGKSFS [P13I]	1.87
LLRHQRIHTGERWYKCPECGKSFS [P13W]	2.83
LLRHQRIHTGLRPYKCPECGKSFS [E11L]	1.99
LLRHQRIHTGMRPYKCPECGKSFS [E11M]	1.99
LLRHQRIHTGCRPYKCPECGKSFS [E11C]	1.96
LLRHQRIHTGARPYKCPECGKSFS [E11A]	2.26
LLRHQRIHTGWRPYKCPECGKSFS [E11W]	2.01
LLRHQRIHTGSRPYKCPECGKSFS [E11S]	2.34
LLRHQRIHTGKRPYKCPECGKSFS [E11K]	2.04
LLRHQRIHTGFRPYKCPECGKSFS [E11F]	1.56
LLRHQRIHTGNRPYKCPECGKSFS [E11N]	2.32
LLRHQRIHTGGRPYKCPECGKSFS [E11G]	2.63
LLRHQRIHTGYRPYKCPECGKSFS [E11Y]	1.88
LLRHQRIHTGHRPYKCPECGKSFS [E11H]	2.7
LLRHQRIHTGPRPYKCPECGKSFS [E11P]	2.39

Variant	protein stability index
LLRHQRIHTGRRPYKCPECGKSFS [E11R]	3.3
LLRHQRIHTGQRPYKCPECGKSFS [E11Q]	2.51
LLRHQRIHTGDRPYKCPECGKSFS [E11D]	2.34
LLRHQRIHTGVRPYKCPECGKSFS [E11V]	2.56
LLRHQRIHTGTRPYKCPECGKSFS [E11T]	2.51
LLRHQRIHTGIRPYKCPECGKSFS [E11I]	1.78
LLRHQRIHSGERPYKCPECGKSFS [T9S]	1.88
LLRHQRIHFGERPYKCPECGKSFS [T9F]	2.06
LLRHQRIHMGERPYKCPECGKSFS [T9M]	2.21
LLRHQRIHEGERPYKCPECGKSFS [T9E]	2.62
LLRHQRIHCGERPYKCPECGKSFS [T9C]	2.19
LLRHQRIHQGERPYKCPECGKSFS [T9Q]	3.1
LLRHQRIHKGERPYKCPECGKSFS [T9K]	2.41
LLRHQRIHHGERPYKCPECGKSFS [T9H]	2.21
LLRHQRIHDGERPYKCPECGKSFS [T9D]	2.73
LLRHQRIHLGERPYKCPECGKSFS [T9L]	3.29
LLRHQRIHAGERPYKCPECGKSFS [T9A]	1.85
LLRHQRIHVGERPYKCPECGKSFS [T9V]	2.34
LLRHQRIHIGERPYKCPECGKSFS [T9I]	2.53
LLRHQRIHPGERPYKCPECGKSFS [T9P]	2.45
LLRHQRIHNGERPYKCPECGKSFS [T9N]	2.07
LLRHQRIHWGERPYKCPECGKSFS [T9W]	1.49
LLRHQRIHYGERPYKCPECGKSFS [T9Y]	2.56
LLRHQRIHRGERPYKCPECGKSFS [T9R]	2.14

Variant	protein stability index
LLRHQRIHGGERPYKCPECGKSFS [T9G]	3.33
LLRHQRIRTGERPYKCPECGKSFS [H8R]	1.37
LLRHQRISTGERPYKCPECGKSFS [H8S]	2.61
LLRHQRIYTGERPYKCPECGKSFS [H8Y]	1.59
LLRHQRIVTGERPYKCPECGKSFS [H8V]	2.48
LLRHQRIWTGERPYKCPECGKSFS [H8W]	1.73
LLRHQRIITGERPYKCPECGKSFS [H8I]	1.8
LLRHQRINTGERPYKCPECGKSFS [H8N]	2.88
LLRHQRIMTGERPYKCPECGKSFS [H8M]	2.24
LLRHQRIFTGERPYKCPECGKSFS [H8F]	2.04
LLRHQRILTGERPYKCPECGKSFS [H8L]	1.85
LLRHQRIPTGERPYKCPECGKSFS [H8P]	3.3
LLRHQRICTGERPYKCPECGKSFS [H8C]	2.03
LLRHQRIQTGERPYKCPECGKSFS [H8Q]	2.52
LLRHQRITTGERPYKCPECGKSFS [H8T]	2
LLRHQRIGTGERPYKCPECGKSFS [H8G]	2.39
LLRHQRIETGERPYKCPECGKSFS [H8E]	2.52
LLRHQRIKTGERPYKCPECGKSFS [H8K]	2.44
LLRHQRIDTGERPYKCPECGKSFS [H8D]	2.53
LLRHQRIATGERPYKCPECGKSFS [H8A]	1.86
